Experimental data taken from patent publication US11994512B2, “Single-cell genomic methods to generate ex vivo cell systems that recapitulate in vivo biology with improved fidelity” (Massachusetts Institute of Technology, priority 2018, dated 2024).

Test system: intracellular proteome of ENR+CD and ENR organoids
Assay: LC-MS/MS TMT proteomics of ENR+CD versus ENR organoids
Assay type: cell-based, C57BL/6 mice
Conditions: for Average logFC / M1-1 Log2 Median Normalized / M1-2 Log2 Median Normalized / M2-1 Log2 Median Normalized / M2-2 Log2 Median Normalized: protein abundance, ENR+CD versus ENR organoids; for Average logFC: aggregate of the four sample pairs; for M1-1 Log2 Median Normalized: replicate M1-1; for M1-1 Log2 Median Normalized / M1-2 Log2 Median Normalized / M2-1 Log2 Median Normalized / M2-2 Log2 Median Normalized: log2 ratio; for M1-2 Log2 Median Normalized: replicate M1-2; for M2-1 Log2 Median Normalized: replicate M2-1; for M2-2 Log2 Median Normalized: replicate M2-2; for change: up = enriched in ENR+CD, down = enriched in ENR, FDR<0.05 and log fold change cut-off

Row | Molecule | Average logFC | M1-1 Log2 Median Normalized | M1-2 Log2 Median Normalized | M2-1 Log2 Median Normalized | M2-2 Log2 Median Normalized | change
1 | P43137 (protein, UniProt P43137 1-165, looked up, full-length) MARNAYFILLSCLIVLSPSQGQEAEEDLPSARISCPEGSNAYSSYCYYFTEDRLTWADADLFCQNMNSGYLVSVLSQAEGNFVASLIKESGTTDANVWTGLHDPKRNRRWHWSSGSLFLYKSWATGSPNSSNRGYCVSLTSNTGYKKWKDDNCDAQYSFVCKFKG | −2.852 | −2.092 | −3.168 | −4.1035 | −2.045 | down
2 | P51432 (protein, UniProt P51432 1-1234, looked up, full-length) MAGARPGVHALQLEPPTVVETLRRGSKFIKWDEEASSRNLVTLRVDPNGFFLYWTGPNMEVDTLDISSIRDTRTGRYARLPKDPKIREVLGFGGPDTRLEEKLMTVVAGPDPVNTTFLNFMAVQDDTVKVWSEELFKLAMNILAQNASRNTFLRKAYTKLKLQVNQDGRIPVKNILKMFSADKKRVETALESCGLNFNRSESIRPDEFPLEIFERFLNKLCLRPDIDKILLEIGAKGKPYLTLEQLMDFINQKQRDPRLNEVLYPPLRSSQARLLIEKYETNKQFLERDQMSMEGFSRYLGGEENGILPLEALDLSMDMTQPLSAYFINSSHNTYLTAGQLAGPSSVEMYRQALLWGCRCVELDVWKGRPPEEEPFITHGFTMTTEVPLRDVLEAIAEAAFKTSPYPVILSFENHVDSAKQQAKMAEYCRSIFGDALLIDPLDKYPLSAGIPLPSPQDLMGRILVKNKKRHRPSTGVPDSSVRKRPLEQSNSALSESSAATEPSSPQLGSPSSDSCPGLSNGEEVGLEKTSLEPQKSLGEESLSREPNVPMPDRDREDEEEDEEEEETTDPKKPTTDEGTASSEVNATEEMSTLVNYVEPVKFKSFEAARKRNKCFEMSSFVETKAMEQLTKSPMEFVEYNKQQLSRIYPKGTRVDSSNYMPQLFWNVGCQLVALNFQTLDLPMQLNAGVFEYNGRSGYLLKPEFMRRPDKSFDPFTEVIVDGIVANALRVKVISGQFLSDKKVGIYVEVDMFGLPVDTRRKYRTRTSQGNSFNPVWDEEPFDFPKVVLPTLASLRIAAFEEGGKFVGHRILPVSAIRSGYHYVCLRNEANQPLCLPALLIYTEASDYIPDDHQDYAEALINPIKHVSLMDQRAKQLAALIGESEAQASTETYQETPCQQPGSQLPSNPTPNPLDASPRWPPGPTTSSTSSSLSSPGQRDDLIASILSEVTPTPLEELRSHKAMVKLRSRQDRDLRELHKKHQRKAVALTRRLLDGLAQARAEGKCRPSPSALGKATNSEDVKEEEEAKQYREFQNRQVQSLLELREAQADVETKRKLEHLRQAHQRLKEVVLDTHTTQFKRLKELNEREKKELQKILDRKRNNSISEAKTREKHKKEVELTEINRRHITESVNSIRRLEEAQKQRHERLVAGQQQVLQQLEEEEPKLLAQLTQECQEQRERLPQEIRRCLLGETAEGLGDGPLVACASNGHAPGSGGHLSSADSESQEENTQL | −1.187 | −1.261 | −1.255 | −1.1345 | −1.096 | down
3 | P43883 (protein, UniProt P43883 1-425, looked up, full-length) MAAAVVDPQQSVVMRVANLPLVSSTYDLVSSAYVSTKDQYPYLRSVCEMAEKGVKTVTSAAMTSALPIIQKLEPQIAVANTYACKGLDRMEERLPILNQPTSEIVASARGAVTGAKDVVTTTMAGAKDSVASTVSGVVDKTKGAVTGSVERTKSVVNGSINTVLGMVQFMNSGVDNAITKSELLVDQYFPLTQEELEMEAKKVEGFDMVQKPSNYERLESLSTKLCSRAYHQALSRVKEAKQKSQETISQLHSTVHLIEFARKNMHSANQKIQGAQDKLYVSWVEWKRSIGYDDTDESHCVEHIESRTLAIARNLTQQLQTTCQTVLVNAQGLPQNIQDQAKHLGVMAGDIYSVFRNAASFKEVSDGVLTSSKGQLQKMKESLDEVMDYFVNNTPLNWLVGPFYPQSTEVNKASLKVQQSEVKAQ | 1.236 | 1.328 | 1.122 | 0.9365 | 1.559 | up
4 | P50431 (protein, UniProt P50431 1-478, looked up, full-length) MADRDATLWASHEKMLSQPLKDSDAEVYSIIKKESNRQRVGLELIASENFASRAVLEALGSCLNNKYSEGYPGQRYYGGTEFIDELEMLCQKRALQAYHLDPQCWGVNVQPYSGSPANFAVYTALVEPHGRIMGLDLPDGGHLTHGFMTDKKKISATSIFFESMPYKVYPETGYINYDQLEENASLFHPKLIIAGTSCYSRNLDYARLRKIADDNGAYLMADMAHISGLVAAGVVPSPFEHCHVVTTTTHKTLRGCRAGMIFYRKGVRSVDPKTGKETYYELESLINSAVFPGLQGGPHNHAIAGVAVALKQAMTTEFKIYQLQVLANCRALSDALTELGYKIVTGGSDNHLILMDLRSKGTDGGRAEKVLEACSIACNKNTCPGDKSALRPSGLRLGTPALTSRGLLEEDFQKVAHFIHRGIELTLQIQSHMATKATLKEFKEKLAGDEKIQSAVATLREEVENFASNFSLPGLPDF | −1.162 | −1.382 | −1 | −1.1875 | −1.08 | down
5 | P52792 (protein, UniProt P52792 1-465, looked up, full-length) MLDDRARMEATKKEKVEQILAEFQLQEEDLKKVMSRMQKEMDRGLKLETHQEASVKMLPTYVRSTPEGSEVGDFLSLDLGGTNFRVMLVKVGEGEAGQWSVKTKHQMYSIPEDAMTGTAEMLFDYISECISDFLDKHQMKHKKLPLGFTFSFPVRHEDIDKGILLNWTKGFKASGAEGNNIVGLLRDAIKRRGDFEMDVVAMVNDTVATMISCYYEDRQCEVGMIVGTGCNACYMEEMQNVELVEGDEGRMCVNTEWGAFGNSGELDEFLLEYDRMVDESSVNPGQQLYEKIIGGKYMGELVRLVLLKLVEENLLFHGEASEQLRTRGAFETRFVSQVESDSGDRRQILNILSTLGLRPSVADCDIVRRACESVSTRAAHMCSAGLAGVINRMRESRSEDVMRITVGVDGSVYKLHPSFKERFHASVRRLTPNCEITFIESEEGSGRGAALVSAVACKKACMLGQ | 1.166 | 1.847 | 0.711 | 1.3025 | 0.805 | up
6 | P48281 (protein, UniProt P48281 1-422, looked up, full-length) MEAMAASTSLPDPGDFDRNVPRICGVCGDRATGFHFNAMTCEGCKGFFRRSMKRKALFTCPFNGDCRITKDNRRHCQACRLKRCVDIGMMKEFILTDEEVQRKREMIMKRKEEEALKDSLRPKLSEEQQHIIAILLDAHHKTYDPTYADFRDFRPPIRADVSTGSYSPRPTLSFSGDSSSNSDLYTPSLDMMEPASFSTMDLNEEGSDDPSVTLDLSPLSMLPHLADLVSYSIQKVIGFAKMIPGFRDLTSDDQIVLLKSSAIEVIMLRSNQSFTLDDMSWDCGSQDYKYDITDVSRAGHTLELIEPLIKFQVGLKKLNLHEEEHVLLMAICIVSPDRPGVQDAKLVEAIQDRLSNTLQTYIRCRHPPPGSHQLYAKMIQKLADLRSLNEEHSKQYRSLSFQPENSMKLTPLVLEVFGNEIS | −1.442 | −1.589 | −1.441 | −1.0795 | −1.499 | down
7 | P51162 (protein, UniProt P51162 1-128, looked up, full-length) MAFSGKYEFESEKNYDEFMKRLGLPGDVIERGRNFKIITEVQQDGQDFTWSQSYSGGNIMSNKFTIGKECEMQTMGGKKFKATVKMEGGKVVAEFPNYHQTSEVVGDKLVEISTIGDVTYERVSKRLA | −1.573 | −0.519 | −1.799 | −2.7635 | −1.209 | down
8 | P48036 (protein, UniProt P48036 1-319, looked up, full-length) MATRGTVTDFPGFDGRADAEVLRKAMKGLGTDEDSILNLLTSRSNAQRQEIAQEFKTLFGRDLVDDLKSELTGKFEKLIVAMMKPSRLYDAYELKHALKGAGTDEKVLTEIIASRTPEELSAIKQVYEEEYGSNLEDDVVGDTSGYYQRMLVVLLQANRDPDTAIDDAQVELDAQALFQAGELKWGTDEEKFITIFGTRSVSHLRRVFDKYMTISGFQIEETIDRETSGNLEQLLLAVVKSIRSIPAYLAETLYYAMKGAGTDDHTLIRVVVSRSEIDLFNIRKEFRKNFATSLYSMIKGDTSGDYKKALLLLCGGEDD | 1.143 | 1.196 | 1.332 | 1.1055 | 0.94 | up
9 | P50543 (protein, UniProt P50543 1-98, looked up, full-length) MPTETERCIESLIAVFQKYSGKDGNNTQLSKTEFLSFMNTELAAFTKNQKDPGVLDRMMKKLDLNCDGQLDFQEFLNLIGGLAIACHDSFIQTSQKRI | 1.372 | 1.371 | 1.475 | 1.4645 | 0.855 | up
10 | P48756 (protein, UniProt P48756 1-144, looked up, full-length) MVALKTCSLLLVLLFLAVGLGEKEEVEFRSHAKFAGPRPRGPRYAEGTFISDYSIAMDKIRQQDFVNWLLAQRGKKSDWKHNITQREARALVLAGQSQGKEDKEAQESSLPKSLSDDDVLRDLLIQELLAWMVDQTELCRLRSQ | 1.212 | 1.21 | 0.504 | 1.2845 | 1.769 | up
